The data set has as its system MS2 coat protein. Description: apparent KD of MS2 coat protein; designed switch direction (-1 OFF switch, 1 ON switch): -1; higher = weaker reporter binding. An outline of the steps: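 Transcription of designed RNA switches on Illumina chips was done by stalled E. coli RNA polymerase. SNAP-549-labelled MS2 coat protein was then titrated in doubling steps from 0.7 or 1.5 nM to 3 µM, with steps of 0.8–1.5 h at the lowest and 10–20 min at the highest concentration. The per-design median over clusters of curve-fitted normalised fluorescence is reported as apparent KD.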

Where [1] appears, read: input ligand: microRNA oligo, concentration not stated.
[2] abbreviates: Eterna round: R95, input ligand: FMN 200 uM.
Where [3] appears, read: Eterna round: R95, input ligand: microRNA oligo, concentration not stated.
Where [4] appears, read: Eterna round: R95, input ligand: none.

For “ACAUGUAAUGCAGGAUAUUUGACACAUGAGGAUCACCCAUGUGACCAGAGGAAUUGCUAUGAGUCGAAGAAGGGUAUGUACAUG [Ex NG2 #55] (Eterna round: R96, puzzle: Exclusion NG 2)”, the “apparent KD of MS2 coat protein” value is 56.2 nM (input ligand: FMN 200 uM), 44.7 nM under setting [1] and 42.9 nM (input ligand: none).

For the sequence “ACAUGUCAUCGAGGAUAUUGCACACAUGAGGAUCACCCAUGUAUUCGGUUGCUCUCGCGUGAGUUCGAGAAGGCGAUGUACAUU [Ex NG2 #84] (Eterna round: R96, puzzle: Exclusion NG 2)”, the “apparent KD of MS2 coat protein” value (input ligand: FMN 200 uM) amounted to 276 nM, the “apparent KD of MS2 coat protein” value under setting [1] was determined as 36.6 nM and the “apparent KD of MS2 coat protein” value (input ligand: none) turned out to be 48.9 nM.

Regarding “ACAUGUCAUUGAGGAUAUCGCACACAUGAGGAUCACCCAUGUAAACAGAUGCUCAUAAGUGGGUUCGAGAAGGCGAUGUACAUU [Ex NG2 #100] (Eterna round: R96, puzzle: Exclusion NG 2)”, the “apparent KD of MS2 coat protein” value reads like this: (input ligand: FMN 200 uM) 318 nM; under setting [1], 119 nM; (input ligand: none) 117 nM.

Consider “ACAUGUCAUUGAGGAUAUUGCAAACAUGAGGAUCACCCAUGUAUACGGAUGCUCUUACGUGAGUUCGAGAAGGCGAUGUACAUU [Ex NG2 #91] (Eterna round: R96, puzzle: Exclusion NG 2)”, for which the “apparent KD of MS2 coat protein” value was 99.7 nM (input ligand: FMN 200 uM), 39.7 nM under setting [1] and 46.2 nM (input ligand: none).

Consider “ACAUGUGUUGUAGGAUAUAGGAUACAUGAGGAUCACCCAUGUGGAUUCAUGUCAAAGGAAACGUCCUAGAAGGACGACAACAUG [Ex NG2 #23] (Eterna round: R96, puzzle: Exclusion NG 2)”, for which the “apparent KD of MS2 coat protein” value reads like this: (input ligand: FMN 200 uM) 176 nM; under setting [1], 53.2 nM; (input ligand: none) 84.3 nM.

As to “ACAUGUUAUGUAGGAUAUUAGACACAUGAGGAUCACCCAUGUAACCGGAGGCUUUACUAUGAGUUUGAGAAGGGUAUGAACAUG [Ex NG2 #66] (Eterna round: R96, puzzle: Exclusion NG 2)”, the “apparent KD of MS2 coat protein” value runs as follows: (input ligand: FMN 200 uM) 78.1 nM; under setting [1], 45.4 nM; (input ligand: none) 92.1 nM.

As for “ACAUGUUGCGCAGGAUAUGGGACACAUGAGGAUCACCCAUGUGGUUUCAUGUCUAACCAAGCGUCCCAGAAGGGCGUGAACAUG [Ex NG2 #30] (Eterna round: R96, puzzle: Exclusion NG 2)”, the “apparent KD of MS2 coat protein” value came out at 41.8 nM (input ligand: FMN 200 uM), 20.8 nM under setting [1] and 19.9 nM (input ligand: none).

For the sequence “ACAUUACAUGAGGAUCACCCAUGUGAGGAUAUGGAGCGAUAGUGUCCUGUCGCGUACACCAGAAGGCGCGGGUG [1st #49] (Eterna round: R97, puzzle: Exclusion 1)”, the “apparent KD of MS2 coat protein” value was 242 nM (input ligand: FMN 200 uM) and 271 nM (input ligand: none).

As for “ACCCGCACAAGCACCAGAGACAUGAGGAUCACCCAUGUAUAGUCGCACUAGGGUCUCUCUAGUCUAGCCGUUCGUCA [Eternabot (Original) Solution 44] (Eterna round: R97, puzzle: Sensor, turn-off variant 1)”, the “apparent KD of MS2 coat protein” value by setting is: (input ligand: FMN 200 uM) 90.4 nM; (input ligand: none) 213 nM.

For “ACCUAACAUGAGGAUCACCCAUGUCAGGAUAUCCGGCCUAUGGAAACAUAGGAAGAACGGAGAAGGGACAGAGG [ChP 04-04-2015 #9] (puzzle: Exclusion 1)”, the “apparent KD of MS2 coat protein” value is, setting by setting: under setting [2], 69.5 nM; under setting [3], 35 nM; under setting [4], 43.1 nM.

With “ACCUAACAUGAGGAUCACCCAUGUGAGGAUAUGUACAUCGGCUCGCGAAAGUGACCGAACAGAAGGUACAUGGU [EX1 A.26] (Eterna round: R97, puzzle: Exclusion 1)”, the “apparent KD of MS2 coat protein” value (input ligand: FMN 200 uM) was 17.8 nM and the “apparent KD of MS2 coat protein” value (input ligand: none) was found to be 19.1 nM.

Take “ACCUAUGAGGAGGAUAUACGGUGCGAAAGGAUGGUAGAAGGCUUCACAUGAGGAUCACCCAUGUCUAUAAGCGA [EX6 #87] (Eterna round: R97, puzzle: Exclusion 6)”: the “apparent KD of MS2 coat protein” value runs as follows: (input ligand: FMN 200 uM) 27.8 nM; (input ligand: none) 18.3 nM.

On to “ACCUCACAUGAGGAUCACCCAUGUCAGGAUAUACAAGAAAAUAACCGGAAAGAACGGAGUAGAAGGGACAUAAG [Zatigeri] (puzzle: Exclusion 1)”, for which the “apparent KD of MS2 coat protein” value worked out at 28.1 nM under setting [2], 15.3 nM under setting [3] and 15.8 nM under setting [4].

For the sequence “ACCUUACUGGUCAGGAUAUACAGUCUCGGGUGGGUGUAGAAGGGACAUGAGGAUCACCCAUGUAGGUUGCAGCA [alecazam56] (Eterna round: R97, puzzle: Brourd's mod of Exclusion 4)”, the “apparent KD of MS2 coat protein” value amounted to 100 nM (input ligand: FMN 200 uM) and 156 nM (input ligand: none).

Consider “ACGAAACAUGAGGAUCACCCAUGUGAGGAUAUGUAAAUAGUAAACAAAUAAGAAAUAAACAGAAGGCACACAGG [JR_Exclusion1_Sub004] (Eterna round: R96, puzzle: Exclusion 1)”, for which the “apparent KD of MS2 coat protein” value under setting [1] stood at 24.3 nM.

Consider “ACGAAACAUGAGGAUCACCCAUGUGAGGAUAUGUAAAUAGUAAACAAAUAAGAAAUAAACAGAAGGCACACAGG [JR_Exclusion1_Sub004] (puzzle: Exclusion 1)”, for which the “apparent KD of MS2 coat protein” value under setting [2] was 57.2 nM, the “apparent KD of MS2 coat protein” value under setting [3] was found to be 26.3 nM and the “apparent KD of MS2 coat protein” value under setting [4] came to 28.2 nM.

Consider “ACGAAGCACGAGGAUAUGACCAUAGUGAUAUGGUCAGAAGGCGUAACAUGAGGAUCACCCAUGUAGUGGCCUCG [Eternabot (Original) Solution 12] (Eterna round: R97, puzzle: Exclusion 6)”, for which the “apparent KD of MS2 coat protein” value (input ligand: FMN 200 uM) is 212 nM and the “apparent KD of MS2 coat protein” value (input ligand: none) stood at 20.1 nM.

For “ACGCAUUGCCAAAGGUAGUGCGUUACAUGAGGAUCACCCAUGUAGGAUAUGGUAGGCAAAGCUUACCAGAAGGACAUGAUAAUU [Mat - Exclusion NG 3 - Mod of JL - D6] (Eterna round: R96, puzzle: Exclusion NG 3)”, the “apparent KD of MS2 coat protein” value by setting is: (input ligand: FMN 200 uM) 227 nM; under setting [1], 44.8 nM; (input ligand: none) 51.2 nM.

Turning to “ACGCAUUGCCUUUGGUAGUGCGUAACAUGAGGAUCACCCAUGUAGGAUAUGGUAGGCAAAGCUUACCAGAAGGACAUAAUAAUU [Mat - Exclusion NG 3 - Mod of JL - D3] (Eterna round: R96, puzzle: Exclusion NG 3)”, the “apparent KD of MS2 coat protein” value is, setting by setting: (input ligand: FMN 200 uM) 73 nM; under setting [1], 31.4 nM; (input ligand: none) 32.7 nM.

For the sequence “ACGCCGCAAGGAUAUACUUGCGGUGAUGUUCGAGUUCUUCUACUUGAGGAUCACCCAAGUAGAAGGUGCAAAAC [jl-ex2.4.60 ViennaUCT mod] (Eterna round: R97, puzzle: Exclusion 2)”, the “apparent KD of MS2 coat protein” value was determined as 14.9 nM (input ligand: FMN 200 uM) and 14 nM (input ligand: none).

Regarding “ACGCGAGUAGGAGGAUAUUCCGAGCGCGGGCCGGGAGAAGGCCUAGAUCGUGAACAUGAGGAUCACCCAUGUGGGAUGAUCUAA [Ededaranri] (Eterna round: R96, puzzle: Exclusion NG 1)”, the “apparent KD of MS2 coat protein” value stood at 8.23 nM (input ligand: FMN 200 uM), 94.9 nM under setting [1] and 313 nM (input ligand: none).

In the case of “ACGUAUAGAGGAUAUAGUGAAUAUUACAUGAGGAUCACCCAUGUUCUUCAAAGCAUAUUCCUAGAAGGCUAAUGAA [EX-5 Malc#12] (puzzle: Exclusion 5)”, the “apparent KD of MS2 coat protein” value under setting [2] is 113 nM, the “apparent KD of MS2 coat protein” value under setting [3] worked out at 44.4 nM and the “apparent KD of MS2 coat protein” value under setting [4] amounted to 56.4 nM.

Consider “ACGUCCUUGGUAAGGAUAUCGAUGGAGGCGAUCCACGAGAAGGUACAUGAGGAUCACCCAUGUAUACGAAUACG [Eternabot (L1) Solution 94] (Eterna round: R97, puzzle: Brourd's mod of Exclusion 4)”, for which the “apparent KD of MS2 coat protein” value by setting is: (input ligand: FMN 200 uM) 18.4 nM; (input ligand: none) 17.8 nM.

As for “ACUAAACAUGUAGGAUAUGCGUGGCGAAGCUAUGCAGAAGGACAUGAGGAUCACCCAUGUUUUAGCGUCUGCGUACAGAUGCGU [JL ENG1 1.44] (Eterna round: R96, puzzle: Exclusion NG 1)”, the “apparent KD of MS2 coat protein” value reads like this: (input ligand: FMN 200 uM) 200 nM; under setting [1], 17.5 nM; (input ligand: none) 22.7 nM.

For “ACUACUAACACGAAAGUGUUAGUACAAUAAGCUUGUGAAACAUGAGGAUCACCCAUGUCCUCAUAAGCUCGUCUUAA [salish99_TOv2_r3_012] (puzzle: Sensor v3, turn-off variant 2)”, the “apparent KD of MS2 coat protein” value amounted to 14.4 nM under setting [2], 211 nM under setting [3] and 13.8 nM under setting [4].

As for “ACUAGAUGAGGAUAUACACAUUUUAGUGUUCCUCUAGAUUAACAUGAGGAUCACCCAUGUAGAAGGCAUCAUUA [Exclusion 2 - 9] (puzzle: Exclusion 2)”, the “apparent KD of MS2 coat protein” value under setting [3] came to 65 nM.

“ACUAGAUGAGGAUAUGCAUGUUUUCGUGUUCUUCUAGAUUAACAUGAGGAUCACCCAUGUAGAAGGCGUCAAUU [Exclusion 2 - 28] (puzzle: Exclusion 2)”: the “apparent KD of MS2 coat protein” value under setting [3] turned out to be 48 nM.

Consider “ACUCAGUCAGGAUAUCAAUCCGCCUGUGAUACGCAGGCGGCUGAGAAGGGACAUGAGGAUCACCCAUGUAAAGA [jl-ex4-4.18 ViennaUCT mod] (Eterna round: R97, puzzle: Exclusion 4)”, for which the “apparent KD of MS2 coat protein” value is 538 nM (input ligand: FMN 200 uM) and 129 nM (input ligand: none).

Take “ACUGGAGCAGGAUAUACAUAACGUGCUUCGGCACGAGAUCUACAUGAGGAUCACCCAUGUAGAAGGGCUCCAGU [E2/10-D1] (Eterna round: R97, puzzle: Exclusion 2)”: the “apparent KD of MS2 coat protein” value (input ligand: FMN 200 uM) worked out at 28.3 nM and the “apparent KD of MS2 coat protein” value (input ligand: none) is 13.3 nM.

With “ACUGGUCGAGGAUAUACAUGAGGAUCACCCAUGUGGUCACGUGACGAUAGUCACGAAUGUAGAAGGCGACCAGU [E3/3-A2] (Eterna round: R97, puzzle: Exclusion 3)”, the “apparent KD of MS2 coat protein” value was 15.7 nM (input ligand: FMN 200 uM) and 123 nM (input ligand: none).

The values above are taken from the supplement of paper PMC9170038.
